This note sets out measurements from US20030228623A1.

“And” between values parts separate entries of the source, which are not always exact repeats. Equal entries are not always repeated.

In assay [1] the target is streptavidin (streptavidin-coated magnetic beads, Dynal) (UniProt P22629). Nature of the assay: spores incubated in vitro with BirA, biotin and ATP, then streptavidin-coated beads; input 919,600.
The target is the same in assay [2]. The assay is described as follows: spores biotinylated in vivo, streptavidin-coated magnetic beads, washed, plated; input 1,075,900.
Assay [3] has the same target. The assay is described as follows: spores incubated in vitro with BirA, biotin and ATP, then streptavidin-coated beads.
The target is the same in assay [4]. Nature of the assay: spores biotinylated in vivo, streptavidin-coated magnetic beads, washed, plated.
Assay [5] has the same target. The assay is described as follows: spores biotinylated in vivo, streptavidin-coated magnetic beads, washed, plated; input 919,300.
The target is the same in assay [6]. Nature of the assay: spores incubated in vitro with BirA, biotin and ATP, then streptavidin-coated beads; input 176,900.
The target is the same in assay [7]. The assay is described as follows: spores incubated in vitro with BirA, biotin and ATP, then streptavidin-coated beads; input 234,900.
Assay [8] has the same target. Nature of the assay: spores (in vivo), streptavidin-coated magnetic beads, washed, plated; input 814,900.
Assay [9] shares this target. The assay is described as follows: spores (in vivo), streptavidin-coated magnetic beads, washed, plated.
Assay [10] has the same target. The assay is described as follows: spores biotinylated in vivo, streptavidin-coated magnetic beads, washed, plated; input 10,000.
Assay [11] has the same target. Nature of the assay: spores (in vivo), streptavidin-coated magnetic beads, washed, plated; input 843,900.
The target is the same in assay [12]. The assay is described as follows: spores incubated in vitro with BirA, biotin and ATP, then streptavidin-coated beads; input 417,600.
Assay [13] has the same target. Nature of the assay: phage incubated with streptavidin-coated beads, washed, released with Factor Xa, plated on TG1 cells.
The target is the same in assay [14]. The assay is described as follows: streptavidin-coated beads capture; phage from host cells grown without added biotin; 109,000 phage used.
Assay [15] shares this target. Nature of the assay: phage incubated with streptavidin-coated beads, washed, released with Factor Xa, plated on TG1 cells; 96,500 phage used.
For assay [16] the target is unchanged. Nature of the assay: streptavidin-coated beads capture; phage from host cells grown without added biotin.
Assay [17] addresses modified streptavidin Stv-38. Nature of the assay: phage on microtiter wells coated with Stv-38, washed, eluted with 3 mM biotin, plated on TG1 cells; input 250,000.
For assay [18], the target named is modified streptavidin Stv-38. Nature of the assay: phage on microtiter wells coated with Stv-38, washed, eluted with 3 mM biotin, plated on TG1 cells.
Assay [19] deals with modified streptavidin Stv-38. The assay is described as follows: phage on microtiter wells coated with Stv-38, washed, eluted with 3 mM biotin, plated on TG1 cells; input 1,590,500.
In assay [20] the target is modified streptavidin Stv-38. The assay is described as follows: phage on microtiter wells coated with Stv-38, washed, eluted with 3 mM biotin, plated on TG1 cells; input 159,500.
The target of assay [21] is streptavidin (streptavidin-coated magnetic beads, Dynal) (UniProt P22629). Nature of the assay: phage incubated with streptavidin-coated beads, washed, released with Factor Xa, plated on TG1 cells; 97,500 phage used.

Sequence of spores of PY79-BirA-3G (Fusion 3: Fusion 1 with peptide-G, with the last 41 amino acids of CotB added to its C-terminus) (P07789 whole entry, the tested form may be a part): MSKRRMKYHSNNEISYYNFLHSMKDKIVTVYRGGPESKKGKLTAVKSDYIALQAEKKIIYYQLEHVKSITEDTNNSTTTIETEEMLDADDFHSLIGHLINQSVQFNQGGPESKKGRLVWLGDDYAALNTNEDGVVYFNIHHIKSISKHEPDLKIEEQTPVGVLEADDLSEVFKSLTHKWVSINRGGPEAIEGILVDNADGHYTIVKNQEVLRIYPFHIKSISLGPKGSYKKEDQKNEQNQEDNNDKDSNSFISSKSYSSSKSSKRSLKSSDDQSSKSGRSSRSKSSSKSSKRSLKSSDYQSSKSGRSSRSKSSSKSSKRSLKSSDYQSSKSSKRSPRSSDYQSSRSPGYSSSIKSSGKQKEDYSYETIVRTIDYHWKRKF
Sequence of spores of PY79-BirA-3K (Fusion 3: Fusion 1 with peptide-K, with the last 41 amino acids of CotB added to its C-terminus) (P07789 whole entry, the tested form may be a part): as above
Sequence of bacteriophage K (M13 phage displaying on coat protein pIII the 33-residue peptide recognized by BirA) (P69168 19-424): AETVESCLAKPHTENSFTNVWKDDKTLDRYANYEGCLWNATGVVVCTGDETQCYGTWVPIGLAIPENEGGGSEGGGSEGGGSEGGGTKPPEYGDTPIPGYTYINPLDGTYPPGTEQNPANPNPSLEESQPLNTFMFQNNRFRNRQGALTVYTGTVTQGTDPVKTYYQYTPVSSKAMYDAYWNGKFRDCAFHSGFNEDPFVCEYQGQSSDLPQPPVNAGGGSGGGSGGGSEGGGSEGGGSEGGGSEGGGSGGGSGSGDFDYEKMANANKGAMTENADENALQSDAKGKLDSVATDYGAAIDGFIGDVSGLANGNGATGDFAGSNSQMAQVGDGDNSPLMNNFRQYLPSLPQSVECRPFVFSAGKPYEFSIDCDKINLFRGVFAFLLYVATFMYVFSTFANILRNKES
Sequence of bacteriophage G (M13 phage displaying on pIII the control peptide with the lysine recognized by BirA replaced by glycine) (P69168 19-424): as above
Sequence of spores of PY79-BirA-1G (Fusion 1: peptide-G added to the C-terminus of CotB following residue 275) (P07789 1-275): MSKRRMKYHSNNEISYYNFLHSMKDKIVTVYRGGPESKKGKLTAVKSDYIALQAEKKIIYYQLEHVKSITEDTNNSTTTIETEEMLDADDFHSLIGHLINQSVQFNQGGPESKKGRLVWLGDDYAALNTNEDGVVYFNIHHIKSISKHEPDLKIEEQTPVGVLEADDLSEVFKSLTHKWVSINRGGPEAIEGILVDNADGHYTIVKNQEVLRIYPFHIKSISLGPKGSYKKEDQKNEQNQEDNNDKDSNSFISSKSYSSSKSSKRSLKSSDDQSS
Sequence of spores of PY79-BirA-1K (Fusion 1: peptide-K added to the C-terminus of CotB following residue 275) (P07789 1-275): as above
Sequence of streptavidin (streptavidin-coated magnetic beads, Dynal) (P22629 37-163 limits assumed): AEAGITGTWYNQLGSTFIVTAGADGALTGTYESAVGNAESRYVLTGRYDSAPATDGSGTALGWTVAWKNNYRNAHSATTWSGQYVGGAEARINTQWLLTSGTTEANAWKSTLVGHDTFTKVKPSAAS
Sequence of spores of PY79-BirA-2K (Fusion 2: peptide-K at the amino end of the first 275 amino acids of CotB) (P07789 1-275): as the sequence (P07789 1-275) above
Sequence of spores of PY79-BirA-2G (Fusion 2: peptide-G at the amino end of the first 275 amino acids of CotB) (P07789 1-275): as above

In the case of “spores of PY79-BirA-1K (Fusion 1: peptide-K added to the C-terminus of CotB following residue 275) (from UniProt P07789 1-275)”, in assay [1], the Out stood at 30000 spores. In addition, the Out (#) in assay [2] came to 300 spores. The Ratio (%) is 3.26% in assay [3] and 0.0279% in [4].

In the case of “spores of PY79-BirA-3K (Fusion 3: Fusion 1 with peptide-K, with the last 41 amino acids of CotB added to its C-terminus) (from UniProt P07789 1-275; P07789 340-380)”, in [5], the Out (#) was found to be 260 spores. Also, the Ratio (%) in assay [3] worked out at 0.071%; in assay [4], 0.0283%. The Out in assay [6] was found to be 125 spores.

“spores of PY79-BirA-3G (Fusion 3: Fusion 1 with peptide-G, with the last 41 amino acids of CotB added to its C-terminus) (from UniProt P07789 1-275; P07789 340-380)” had an Out in assay [7] of 250 spores. Further, the Ratio (%) is 0.106% in assay [3] and 0.0049% in assay [9]. In assay [8], this substance came in with an Out (#) of 240 spores.

As to “spores of PY79-BirA-2G (Fusion 2: peptide-G at the amino end of the first 275 amino acids of CotB) (from UniProt P07789 1-275)”, the Ratio (%) in assay [9] was found to be 0%.

Consider “spores of PY79-BirA-2K (Fusion 2: peptide-K at the amino end of the first 275 amino acids of CotB) (from UniProt P07789 1-275)”, for which, in assay [10], the Out (#) came out at 920 spores. For the same substance, the Ratio (%) in [4] worked out at 9.2%.

On to “spores of PY79-BirA-1G (Fusion 1: peptide-G added to the C-terminus of CotB following residue 275) (from UniProt P07789 1-275)”, for which the Ratio (%) in assay [3] came to 0.299%; in assay [9], 0.0118%. This substance also registered an Out (#) in [11] of 100 spores. This substance also returned an Out in assay [12] of 1250 spores.

Consider “bacteriophage K (M13 phage displaying on coat protein pIII the 33-residue peptide recognized by BirA) (from UniProt P69168 19-424)”, for which the % bound in [13] was determined as 1.11%; in assay [16], 0.78%. Also, the # of bound phage in [14] is 850 phage. Further, the # of bound phage able to bind TG1 cells in assay [15] was determined as 1080 phage. This substance also returned a Bound in assay [17] of 2130 phage. The Ratio (%) in assay [18] is 0.504% and 0.852%.

Take “bacteriophage G (M13 phage displaying on pIII the control peptide with the lysine recognized by BirA replaced by glycine) (from UniProt P69168 19-424)”: the values for the Bound in assay [19] and in assay [20] were 27 phage and 7 phage, respectively. Besides, the % bound in assay [13] was found to be 0.013%. Besides, the Ratio (%) in assay [18] was 0.002% and 0.004%. Moreover, in assay [21], the # of bound phage able to bind TG1 cells amounted to 13 phage.
